# Measured values reported in patent US20190263889A1.
# Values joined by “and” are separate entries in the source; they are usually repeats but may differ in a detail not shown here. Equal values may be shown once.
# Key:
# [1] = biological target: CTLA-4Fc mutant protein M1 (human (murine residues substituted)); assay: ELISA; binder 10 ng/ml on coated target
# [2] = biological target: CTLA-4Fc mutant protein M10 (human (murine residues substituted)); assay: ELISA; binder 10 ng/ml on coated target
# [3] = biological target: CTLA-4Fc mutant protein M11 (human (murine residues substituted)); assay: ELISA; binder 10 ng/ml on coated target
# [4] = biological target: CTLA-4Fc mutant protein M2 (human (murine residues substituted)); assay: ELISA; binder 10 ng/ml on coated target
# [5] = biological target: CTLA-4Fc mutant protein M3 (human (murine residues substituted)); assay: ELISA; binder 10 ng/ml on coated target
# [6] = biological target: CTLA-4Fc mutant protein M4 (human (murine residues substituted)); assay: ELISA; binder 10 ng/ml on coated target
# [7] = biological target: CTLA-4Fc mutant protein M5 (human (murine residues substituted)); assay: ELISA; binder 10 ng/ml on coated target
# [8] = biological target: CTLA-4Fc mutant protein M6 (human (murine residues substituted)); assay: ELISA; binder 10 ng/ml on coated target
# [9] = biological target: CTLA-4Fc mutant protein M7 (human (murine residues substituted)); assay: ELISA; binder 10 ng/ml on coated target
# [10] = biological target: CTLA-4Fc mutant protein M8 (human (murine residues substituted)); assay: ELISA; binder 10 ng/ml on coated target
# [11] = biological target: CTLA-4Fc mutant protein M9 (human (murine residues substituted)); assay: ELISA; binder 10 ng/ml on coated target
# [12] = biological target: human IgG1-Fc control (human) [IgG part: P01857]; assay: ELISA; binder 10 ng/ml on coated target
# mouse CTLA-4-Fc (mouse) [13] = biological target: mouse CTLA-4-Fc (mouse) (UniProt P09793); assay: ELISA; binder 10 ng/ml on coated target
# [14] = biological target: wild type human CTLA-4Fc fusion protein (abatacept) (human); assay: ELISA; binder 10 ng/ml on coated target
# [15] = biological target: CTLA-4Fc mutant protein M1 (human (murine residues substituted)); assay: ELISA; binder 0 (blank) on coated target
# [16] = biological target: CTLA-4Fc mutant protein M10 (human (murine residues substituted)); assay: ELISA; binder 0 (blank) on coated target
# [17] = biological target: CTLA-4Fc mutant protein M11 (human (murine residues substituted)); assay: ELISA; binder 0 (blank) on coated target
# [18] = biological target: CTLA-4Fc mutant protein M2 (human (murine residues substituted)); assay: ELISA; binder 0 (blank) on coated target
# [19] = biological target: CTLA-4Fc mutant protein M3 (human (murine residues substituted)); assay: ELISA; binder 0 (blank) on coated target
# [20] = biological target: CTLA-4Fc mutant protein M4 (human (murine residues substituted)); assay: ELISA; binder 0 (blank) on coated target
# [21] = biological target: CTLA-4Fc mutant protein M5 (human (murine residues substituted)); assay: ELISA; binder 0 (blank) on coated target
# [22] = biological target: CTLA-4Fc mutant protein M6 (human (murine residues substituted)); assay: ELISA; binder 0 (blank) on coated target
# [23] = biological target: CTLA-4Fc mutant protein M7 (human (murine residues substituted)); assay: ELISA; binder 0 (blank) on coated target
# [24] = biological target: CTLA-4Fc mutant protein M8 (human (murine residues substituted)); assay: ELISA; binder 0 (blank) on coated target
# [25] = biological target: CTLA-4Fc mutant protein M9 (human (murine residues substituted)); assay: ELISA; binder 0 (blank) on coated target
# [26] = biological target: human IgG1-Fc control (human) [IgG part: P01857]; assay: ELISA; binder 0 (blank) on coated target
# mouse CTLA-4-Fc (mouse) [27] = biological target: mouse CTLA-4-Fc (mouse) (UniProt P09793); assay: ELISA; binder 0 (blank) on coated target
# [28] = biological target: wild type human CTLA-4Fc fusion protein (abatacept) (human); assay: ELISA; binder 0 (blank) on coated target
# [29] = biological target: CTLA-4Fc mutant protein M1 (human (murine residues substituted)); assay: ELISA; binder 1000 ng/ml on coated target
# [30] = biological target: CTLA-4Fc mutant protein M10 (human (murine residues substituted)); assay: ELISA; binder 1000 ng/ml on coated target
# [31] = biological target: CTLA-4Fc mutant protein M11 (human (murine residues substituted)); assay: ELISA; binder 1000 ng/ml on coated target
# [32] = biological target: CTLA-4Fc mutant protein M2 (human (murine residues substituted)); assay: ELISA; binder 1000 ng/ml on coated target
# [33] = biological target: CTLA-4Fc mutant protein M3 (human (murine residues substituted)); assay: ELISA; binder 1000 ng/ml on coated target
# [34] = biological target: CTLA-4Fc mutant protein M4 (human (murine residues substituted)); assay: ELISA; binder 1000 ng/ml on coated target
# [35] = biological target: CTLA-4Fc mutant protein M5 (human (murine residues substituted)); assay: ELISA; binder 1000 ng/ml on coated target
# [36] = biological target: CTLA-4Fc mutant protein M6 (human (murine residues substituted)); assay: ELISA; binder 1000 ng/ml on coated target
# [37] = biological target: CTLA-4Fc mutant protein M7 (human (murine residues substituted)); assay: ELISA; binder 1000 ng/ml on coated target
# [38] = biological target: CTLA-4Fc mutant protein M8 (human (murine residues substituted)); assay: ELISA; binder 1000 ng/ml on coated target
# [39] = biological target: CTLA-4Fc mutant protein M9 (human (murine residues substituted)); assay: ELISA; binder 1000 ng/ml on coated target
# [40] = biological target: human IgG1-Fc control (human) [IgG part: P01857]; assay: ELISA; binder 1000 ng/ml on coated target
# mouse CTLA-4-Fc (mouse) [41] = biological target: mouse CTLA-4-Fc (mouse) (UniProt P09793); assay: ELISA; binder 1000 ng/ml on coated target
# [42] = biological target: wild type human CTLA-4Fc fusion protein (abatacept) (human); assay: ELISA; binder 1000 ng/ml on coated target
# [43] = biological target: CTLA-4Fc mutant protein M11 (human (murine residues substituted)); assay: ELISA, target coated 1 ug/mL, biotinylated binder
# CTLA-4Fc mutant protein M2 (human (murine residues substituted)), sequence (chain, as listed by the source mutant): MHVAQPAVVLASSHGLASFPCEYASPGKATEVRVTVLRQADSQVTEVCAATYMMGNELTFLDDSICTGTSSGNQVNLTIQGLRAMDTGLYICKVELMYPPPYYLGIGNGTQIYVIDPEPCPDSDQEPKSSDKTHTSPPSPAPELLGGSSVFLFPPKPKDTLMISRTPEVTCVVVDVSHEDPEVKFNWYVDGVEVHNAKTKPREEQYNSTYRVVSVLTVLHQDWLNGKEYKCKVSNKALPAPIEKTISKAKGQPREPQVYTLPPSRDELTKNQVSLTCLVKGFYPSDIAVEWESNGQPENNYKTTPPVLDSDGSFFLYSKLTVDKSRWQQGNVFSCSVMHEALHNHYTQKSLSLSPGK
# CTLA-4Fc mutant protein M10 (human (murine residues substituted)), sequence (chain, as listed by the source mutant): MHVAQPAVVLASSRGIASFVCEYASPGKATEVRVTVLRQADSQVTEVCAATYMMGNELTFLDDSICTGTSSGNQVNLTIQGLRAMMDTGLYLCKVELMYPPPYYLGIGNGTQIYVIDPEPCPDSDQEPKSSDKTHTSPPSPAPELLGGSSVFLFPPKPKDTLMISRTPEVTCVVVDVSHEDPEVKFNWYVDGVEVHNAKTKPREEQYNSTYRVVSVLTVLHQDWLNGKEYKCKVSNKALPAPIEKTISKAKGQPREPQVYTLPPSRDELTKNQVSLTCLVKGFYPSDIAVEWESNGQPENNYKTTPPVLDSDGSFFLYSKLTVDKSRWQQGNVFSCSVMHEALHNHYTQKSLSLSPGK
# CTLA-4Fc mutant protein M6 (human (murine residues substituted)), sequence (chain, as listed by the source mutant): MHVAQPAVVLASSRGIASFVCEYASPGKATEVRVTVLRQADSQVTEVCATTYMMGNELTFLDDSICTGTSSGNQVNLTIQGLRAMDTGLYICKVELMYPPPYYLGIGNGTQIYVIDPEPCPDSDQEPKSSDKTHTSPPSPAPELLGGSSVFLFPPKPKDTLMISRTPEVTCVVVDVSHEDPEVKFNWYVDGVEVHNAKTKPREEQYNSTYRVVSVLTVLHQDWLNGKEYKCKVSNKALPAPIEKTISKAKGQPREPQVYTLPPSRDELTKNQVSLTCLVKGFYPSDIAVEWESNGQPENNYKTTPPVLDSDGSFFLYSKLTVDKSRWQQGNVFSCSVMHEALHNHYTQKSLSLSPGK
# wild type human CTLA-4Fc fusion protein (abatacept) (human), sequence (chain, as listed by the source limits assumed): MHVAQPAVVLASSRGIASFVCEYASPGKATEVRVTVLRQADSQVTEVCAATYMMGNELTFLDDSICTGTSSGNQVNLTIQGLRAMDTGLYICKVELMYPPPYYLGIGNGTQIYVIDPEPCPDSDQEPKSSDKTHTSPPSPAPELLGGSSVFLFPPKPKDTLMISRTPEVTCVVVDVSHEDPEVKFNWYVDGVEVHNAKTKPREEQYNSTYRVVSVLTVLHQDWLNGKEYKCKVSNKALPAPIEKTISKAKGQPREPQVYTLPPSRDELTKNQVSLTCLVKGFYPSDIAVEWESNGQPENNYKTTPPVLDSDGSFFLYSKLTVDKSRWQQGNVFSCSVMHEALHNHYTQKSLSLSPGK
# mouse CTLA-4-Fc (mouse), sequence (P09793 36-161 limits assumed): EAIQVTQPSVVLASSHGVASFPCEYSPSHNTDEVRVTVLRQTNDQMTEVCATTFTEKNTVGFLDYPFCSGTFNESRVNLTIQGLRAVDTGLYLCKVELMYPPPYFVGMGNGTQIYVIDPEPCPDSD
# CTLA-4Fc mutant protein M8 (human (murine residues substituted)), sequence (chain, as listed by the source mutant): as the sequence (chain, as listed by the source limits assumed) above, with S70F, S71N, G72E, N73S, Q74R counted along it
# CTLA-4Fc mutant protein M5 (human (murine residues substituted)), sequence (chain, as listed by the source mutant): as the sequence (chain, as listed by the source limits assumed) above, with Y52F, M53T, M54E, G55K, E57T, L58V, T59G counted along it
# CTLA-4Fc mutant protein M1 (human (murine residues substituted)), sequence (chain, as listed by the source mutant): as the sequence (chain, as listed by the source limits assumed) above, with M1I, H2Q, A4T, A7S counted along it
# CTLA-4Fc mutant protein M11 (human (murine residues substituted)), sequence (chain, as listed by the source mutant): as the sequence (chain, as listed by the source limits assumed) above, with Y103F, L104V, I106M counted along it
# CTLA-4Fc mutant protein M3 (human (murine residues substituted)), sequence (chain, as listed by the source mutant): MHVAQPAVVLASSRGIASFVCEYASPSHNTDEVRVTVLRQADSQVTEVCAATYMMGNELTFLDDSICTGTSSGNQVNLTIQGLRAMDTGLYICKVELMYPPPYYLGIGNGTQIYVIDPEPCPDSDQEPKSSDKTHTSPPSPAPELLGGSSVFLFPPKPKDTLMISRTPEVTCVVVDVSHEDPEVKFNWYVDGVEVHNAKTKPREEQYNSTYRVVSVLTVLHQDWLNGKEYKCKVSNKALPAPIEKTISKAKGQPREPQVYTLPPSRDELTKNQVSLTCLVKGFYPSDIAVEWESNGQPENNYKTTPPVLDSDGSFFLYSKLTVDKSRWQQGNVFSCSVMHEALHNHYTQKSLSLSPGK
# CTLA-4Fc mutant protein M9 (human (murine residues substituted)), sequence (chain, as listed by the source mutant): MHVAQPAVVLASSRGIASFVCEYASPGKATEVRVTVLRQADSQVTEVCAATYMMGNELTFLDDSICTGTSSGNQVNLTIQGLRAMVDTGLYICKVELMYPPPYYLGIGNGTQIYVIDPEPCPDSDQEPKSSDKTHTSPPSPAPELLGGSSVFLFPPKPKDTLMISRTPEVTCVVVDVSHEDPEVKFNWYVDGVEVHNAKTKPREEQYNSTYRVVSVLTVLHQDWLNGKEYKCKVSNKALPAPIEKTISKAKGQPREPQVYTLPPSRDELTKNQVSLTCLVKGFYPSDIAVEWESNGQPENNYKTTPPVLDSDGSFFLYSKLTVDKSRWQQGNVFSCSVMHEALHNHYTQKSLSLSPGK
# CTLA-4Fc mutant protein M4 (human (murine residues substituted)), sequence (chain, as listed by the source mutant): as the sequence (chain, as listed by the source limits assumed) above, with Q39T, A40N, S42Q, Q43M counted along it
# CTLA-4Fc mutant protein M7 (human (murine residues substituted)), sequence (chain, as listed by the source mutant): as the sequence (chain, as listed by the source limits assumed) above, with D63Y, S64P, I65F, T67S counted along it
substance,measurement,setting,value
chimeric L3D10 anti-human CTLA-4 antibody,OD450,[1],2.69 OD450 and 2.78 OD450
same,OD450,[2],0.157 OD450
same,OD450,[3],0.19 OD450 and 0.194 OD450
same,OD450,[4],0.469 OD450 and 0.333 OD450
same,OD450,[5],0.623 OD450 and 0.593 OD450
same,OD450,[6],0.817 OD450 and 0.563 OD450
same,OD450,[7],1.85 OD450 and 1.8 OD450
same,OD450,[8],1.24 OD450 and 1.88 OD450
same,OD450,[9],0.837 OD450 and 0.884 OD450
same,OD450,[10],1.27 OD450 and 1.45 OD450
same,OD450,[11],0.158 OD450 and 0.213 OD450
same,OD450,[12],0.201 OD450 and 0.182 OD450
same,OD450,mouse CTLA-4-Fc (mouse) [13],0.201 OD450 and 0.18 OD450
same,OD450,[14],1.71 OD450 and 1.8 OD450
same,OD450,[15],0.222 OD450
same,OD450,[16],0.215 OD450 and 0.114 OD450
same,OD450,[17],0.171 OD450 and 0.155 OD450
same,OD450,[18],0.377 OD450 and 0.538 OD450
same,OD450,[19],0.183 OD450 and 0.167 OD450
same,OD450,[20],0.22 OD450 and 0.18 OD450
same,OD450,[21],0.177 OD450 and 0.229 OD450
same,OD450,[22],0.183 OD450 and 0.177 OD450
same,OD450,[23],0.186 OD450 and 0.142 OD450
same,OD450,[24],0.368 OD450 and 0.217 OD450
same,OD450,[25],0.15 OD450 and 0.293 OD450
same,OD450,[26],0.198 OD450 and 0.184 OD450
same,OD450,mouse CTLA-4-Fc (mouse) [27],0.19 OD450 and 0.189 OD450
same,OD450,[28],0.18 OD450 and 0.177 OD450
same,OD450,[29],3.51 OD450
same,OD450,[30],0.945 OD450 and 0.941 OD450
same,OD450,[31],2.89 OD450 and 2.91 OD450
same,OD450,[32],2.83 OD450 and 2.75 OD450
same,OD450,[33],3.33 OD450 and 3.3 OD450
same,OD450,[34],3.08 OD450 and 3.15 OD450
same,OD450,[35],3.41 OD450 and 3.54 OD450
same,OD450,[36],3.28 OD450 and 3.32 OD450
same,OD450,[37],3.3 OD450 and 3.35 OD450
same,OD450,[38],3.35 OD450 and 3.44 OD450
same,OD450,[39],1.12 OD450 and 1.18 OD450
same,OD450,[40],1.39 OD450 and 1.47 OD450
same,OD450,mouse CTLA-4-Fc (mouse) [41],0.942 OD450 and 0.94 OD450
same,OD450,[42],3.57 OD450 and 3.67 OD450
same,fold reduction of binding against WT CTLA-4Fc,[43],100 fold
